This series has as its target T1, MtbCspB (cold shock protein CspB) (Mycobacterium tuberculosis H37Rv) (UniProt I6WZM9).
T1 sequence: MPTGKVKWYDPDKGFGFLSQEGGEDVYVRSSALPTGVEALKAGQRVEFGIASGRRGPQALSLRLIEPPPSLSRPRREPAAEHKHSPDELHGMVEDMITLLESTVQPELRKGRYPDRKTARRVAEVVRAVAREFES
As to the kind of experiment: SPR. To be noted: […] (or 250 mM) NaCl, 10 mM MgCl2, 0.05% Tween-20, temperature not stated.

pKd: −log10 of the molar value.

The term pKd denotes the Kd on a negative log10 scale, so that one unit is a factor of ten. Lower therefore signals a high Kd. Regarding GUGGUCAGUCGAGUGGUUUUUU [oligoU RNA], the pKd is 7.73.
In the case of MTS0997 sRNA (Mcr11, ncRv1264Ac), the pKd was 9.95.
MTS1338 sRNA (DrrS, ncRv11733) gave a pKd of 9.53.

Source of the values: publication PMC12840758.
